The DeepSol protein solubility set

Assay: soluble on expression in E. coli; label from the status in PepcDB or PDB records

Row | Sequence | soluble on expression in E. coli
1 | MFREAELRNGLRVIAEVVPGARSVALGYFVKTGARDETKEESGVSHFLEHMVFKGPEDMDALAVNRAFDRMGAQYNAFTSEEATVYYGAVLPEFAYDLLGLFAKLLRPALREEDFQTEKLVILEEIARYQDRPGFMAYEWARARFFQGHPLGNSVLGTRESITALTREGMAAYHRRRYLPKNMVLAATGRVDFDRLLAEAERLTEAWPEGEAERAYPPLTPAFGVEERPYEKARALYLVALFPGVAYQEEARFPGQVLAHLLGEEGSGRLHFALVDKGLAEVASFGLEEADRAGTFHAYVQADPARKGEVLAVLQEELDRLGREGVGEEEVERAKTPLATGLVFAGETPMQRLFHLGMEYLYTGRYLSLEEVKARVQRVTSREVNALLERGFLEKGLYYLVLPHGA | soluble
2 | MAHHHHHHMKRDRDDSVVGTPNGKWDVSPHGTLGVEAKEFERNAVRRYVFGLVHLKNEGPKANAVDVSESIVRSFNERFRRIVKIGQGSFGEVYIVFDTVTQTHLTMKRMQLLRGAGRRVMGLCNTTSREMNLLRVLKHVNIVELFDYHVVPDGTLIMLMPVIAYDLVSLIRLWRNGGPRGEPSAGRMPLPTIKCIFRQLLTGLAYLHKERVIHRDLKPTNVMINEKGVVKIIDFGWARFCPARWRGPMTGPPCPVAYRPPEVLLGGEHAVNYDASVDLWCCGCILFEMLSGGKMFINARSEAEAVAGITDWLGSPSSKSTLYYGHSAASLIRFKQNRPSRLAHRCELLHIDRDSVDMLDKMLQLEPKWRMPAEELLRHRWFSSAPVACEPHEISLPEHNMYRWLDSKRPS | soluble
3 | MKVFDVHKFDMKKEQDFLQVQFNLKNRINLSPTIHPDSINTGAGVDLAYWEQDGEPYGVCCIIVIDADTKEVIEKVHSMGRISVPYVSGFLAFRELPLIIEAAKKLETEPDVFLFDGNGYLHYNHMGVATHAAFFLGKPTIGIAKTYLKIKGCDFVTPEIEVGAYTDIIIDGEVYGRALRTRRDVKPIFLSCGNYIDLDSSYQITMSLINQESRLPIPVRLADLETHVLRTFYQKNHVLEHHHHHH | soluble
4 | MSLQNKTVFVGISGGVDSAVSALLLKQQYREVIGIFMECWDNTLNNDQLGHRAFNEHKSGCSSKEDFREAQAIAQLLGIKLIKQNLVEPY | soluble
5 | MSLRLPMGLVAVLALVGTAAHAAPKGAEARMIATVDAEQARTLRFLEVMVNQNSGSRNLEGVRRLRDIVVPEFTALGFTSRWIPMERTGRAGHLVLTHKGRQGAKKLLLIGHLDTVFEPDSPFQTYVLNGEKATGPGVGDDKGGIAVILAAVRAMNAAGTLKGASIEVFLTGDEEEAGSPTEVARADLVAAARAADVALDFEGLSRENGRDMGSIARRSSQSWSLTVEAKSGHSSGVWGANAGDGAIYAAAKIVNAFRTELPEPWLTLNVGLIAGGAEAEVAEDNAHVSAQGKTNIIPGEVIARGDLRTLSPEQNRAAMRKMEEIVGRPYPGVTSARIAFSEGYPPMAPTEGNKALLARLNQVNATLGLPEMQPLDPMKRGAGDISFVAEYIDGLVGLGPHSTGDHAPGETVDVPSIWTQAKRAALLMTRLSAEKSAREGHHHHHH | soluble
6 | MAHHHHHHMTELLSAGEVQHPCGWAFAFPFVKRVPPAKLVRLLGTATLLDRIRENDPTLRSVRLDYELLPREEIMQALLGNNTISSVVIARVIPRNSTGTDFARFLESLYHLPLRSVQVQDGEKLPSSYLNHLLYLVEYCSGVGKACKWTDGKCYAGADLNTGNTTTEINDAEEFNGNNSREDVDSEVLDYKRGAVLEFVDFSGCRLTVRQAQWLGDILFHRRCTLRHVNACECRLGNGGVRALLRRVNTSPRLKAASIAEGSVVPLDMIELRWNGVTEDESIRNFVDVVERSPDCWTCMTVYGNYISPHMYTRCEAQVVKAKRLMEEERLKRREIPTNVEVAQPDGRLSSEKGTSCSPRRYFVDLLTSVAGEVDFVCPSLRAVSSLLHEEP | not soluble
7 | MGSDKIHHHHHHMDHQIEDFLEHWLPLADDAWVLAVITQIQGSAYRKPGAMMLFHEFGQGVGMLSGGCLEADLRRHAQKAMQTKQVTCVTYDASDESDASYRLGCGGIVDIMLIPLLKENHDLGLIELVQAFRHGRSGFYQLPLVKAGTDARQYQAAFYPEALTPFPASDFVRTGVFTQEAGESLIIPLRPRFHLGIFGGGIDAKPIAAMADTLGWQVTVFDGRTAYARAADFPHAHIVKLTAGELTANHIAQLDCAVVMNHNLGLDAVALKVIQAHPLAYVALLGPAHRRDKVLGMAGLSTESFSGVFSAPAGLALGGELPSAVALSILAQCHGVLHGATLKHLDEIMR | not soluble
8 | MGLTEQKQKHMEQLSDKNGIISALAFDQRGALKRLMAKYQSEEPTVSQIEALKVLVAEELTPYASSMLLDPEYGLPATKVLDDNAGLLLAYEKTGYDTSSTKRLPDCLDIWSAKRIKEEGADAVKFLLYYDVDSSDEVNEEKEAYIERIGSECVAEDIPFFLEILSYDEKITDSSGIEYAKIKPRKVIEAMKVFSNPRFNIDVLKVEVPVNMDYVEGFAQGETAYNKATAAAYFREQDQATLLPYIFLSAGVPAQLFQETLVFAKEAGAKFNGVLCGRATWAGSVKEYVEKGEAGARQWLRTIGFQNIDELNKILQKTATSWKER | not soluble
9 | MTETEQEAFADLVAELETQTAEAVKAFSKVFDRMEETNDDKEGLSLLKLKNYEMTAYLGELTVLMSKMMKGESITVEPSVKRALKHRVFIEKMKPVEDKMKPQIEKLLGRSSAESGASNGSSKGNHRVRLDNMDVEGDEEEEEEDEDDEEGKGAKEVKKYVAPRIRAVRYEEEDEAPNKQQEKAKRRAMQSSLIMELKNQYSDAPEEIREMSEKKYQYDRERERYEEDNFTRIRLNKDQKRRSEQLGRSETLDDLLSFGDYMMRGEDGRALSEGNKRKRATSSGAGGDTKRHKKSQKERKKAAKGKKEGRKRAIRRRQ | not soluble
10 | AIAGSLGIVTNDPSPYSVHFHLTGFGRFHRVSQNPTEFLVKQFVSFCEERRGLHEAARVVTTTVATTSVKGAQQALDEVYGKLHRDKSVRNVIIHCGVDASANCFRLEERAYNEASFSCPDESGWQPKVVPIDDTKPVDSFLVTSINIRQAVEELEKKGFHVKSSEDAGRFLCNWIYYQSLTRAQCEFSVKVVFVHFPPIQDSQEIQSYCEFLLQLLNVITTHELSSIDE | soluble
11 | MSLNTVIADFTERAGTGRVLKAEPEAIQLAPEQTALIVVDMQNAYTSIGGYLDLAGFDVSKTKPVVENIQKAVTAAHAAGIQVIYFKNGWDNQYVEAGGAGSPNFHKSNALKTMRKQPELQGKLLAKGGWDFELIDELQPKSQDIVIEKPRYSGFFNTALDSMLRARGIRNLVFVGIATNVCVESTLRDGFFLEYFGVALDDACYQAGPVEMHRASMYNIKTFFGWVSDTEGHHHHHH | not soluble
12 | MANVLVINFPGEGHINPTLAIISELIRRGETVVSYCIEDYRKKIEATGAEFREFENFLSQINIMERVNEGGSPLTMLSHMIEASERIVTQIVEETKGEQYDYLLYDNHFPVGRIIANVLQLPSISSCTTFAFNQYITFNDEQESRQVDETNPLYQSCLAGMEKWNRQYGMKCNSMYDIMNHPGDITIVYTSKEYQPRSDVFDESYKFVGPSIATRKEVGSFPMEDLKGEKLIFISMGTVFNEQPELYEKCFEAFKGVEATVILAVGKKINISQFENIPNNFKLYNYVPQLEVLQHADVFVTHGGMNSSSEALYYGVPLVVIPVTGDQPLVAKRVNEVGAGIRLNRKELTSELLRETVKEVMYDVTFKENSRKVGESLRNAGGYKRAVDEIFKMKMNSYLKLK | not soluble
13 | MIQKQHESKLEVGQTFPVTIKRLGINGEGVGYFKRQVVFIPGALPGEEVVAETTKIQRGFAEAKVKKVRKASPHRVKAPCPVYEECGGCQLQHLDYKEQLNQKRDIVVQAFEKYMKNSMEEKIRPTLGMENPWHYRNKSQLQVGRKDEKVITGLYKQNSHQLIDIAHCMIQHKATNEATKVVRRILEKLNVSIYNEKKQKGLVRTIVTRTAVQTGEVQVTLITTKEELPNKEQFIAEVQKQMPAVKSIMQNVNWRKTSVIFGDKTFKLAGKEVIQETLGDLSFELSARAFFQLNPEQTVVLYNEAKKAAALTGNEKIVDAYCGVGTIGLWLANDAAEVRGMDVIPEAIADARKNAKRHGFTNTKYEAGKAEQWLPKWVKEGWRPDVIVVDPPRTGCDDKLLETILKVKPKQVVYVSCNPSSLARDVQALMKSYEVEYVQPVDMFPHTAHVENVVKLTLK | not soluble
